# Where no end group is shown, it is not given here. [ ]: non-standard residue; d: D form. Aib = CC(C)(N)C(=O)O
# B1: [Aib8,Glu23,Val25,Arg26,Glu34,Arg35,Val36,Arg37]-GLP-1-(7-37)-peptidyl-Glu-Phe-Leu-Lys amide (peptide)
# peptide: H[Aib]EGTFTSDVSSYLEGEAVREFIAWLVERVREFLK-NH2
# modifications: N-terminus assumed
# SMILES: CC[C@H](C)[C@H](NC(=O)[C@H](Cc1ccccc1)NC(=O)[C@H](CCC(=O)O)NC(=O)[C@H](CCCNC(=N)N)NC(=O)[C@@H](NC(=O)[C@H](C)NC(=O)[C@H](CCC(=O)O)NC(=O)CNC(=O)[C@H](CCC(=O)O)NC(=O)[C@H](CC(C)C)NC(=O)[C@H](Cc1ccc(O)cc1)NC(=O)[C@H](CO)NC(=O)[C@H](CO)NC(=O)[C@@H](NC(=O)[C@H](CC(=O)O)NC(=O)[C@H](CO)NC(=O)[C@@H](NC(=O)[C@H](Cc1ccccc1)NC(=O)[C@@H](NC(=O)CNC(=O)[C@H](CCC(=O)O)NC(=O)C(C)(C)NC(=O)[C@@H](N)Cc1c[nH]cn1)[C@@H](C)O)[C@@H](C)O)C(C)C)C(C)C)C(=O)N[C@@H](C)C(=O)N[C@@H](Cc1c[nH]c2ccccc12)C(=O)N[C@@H](CC(C)C)C(=O)N[C@H](C(=O)N[C@@H](CCC(=O)O)C(=O)N[C@@H](CCCNC(=N)N)C(=O)N[C@H](C(=O)N[C@@H](CCCNC(=N)N)C(=O)N[C@@H](CCC(=O)O)C(=O)N[C@@H](Cc1ccccc1)C(=O)N[C@@H](CC(C)C)C(=O)N[C@@H](CCCCN)C(N)=O)C(C)C)C(C)C
# B2: [Aib8,Glu23,Lys24,Val25,Glu30,His31,Glu34,Lys35,Phe36,Lys37]-GLP-1-(7-37)-peptidyl-Glu-Phe-Phe amide (peptide)
# peptide: H[Aib]EGTFTSDVSSYLEGEKVKEFIEHLVEKFKEFF-NH2
# modifications: N-terminus assumed
# SMILES: CC[C@H](C)[C@H](NC(=O)[C@H](Cc1ccccc1)NC(=O)[C@H](CCC(=O)O)NC(=O)[C@H](CCCCN)NC(=O)[C@@H](NC(=O)[C@H](CCCCN)NC(=O)[C@H](CCC(=O)O)NC(=O)CNC(=O)[C@H](CCC(=O)O)NC(=O)[C@H](CC(C)C)NC(=O)[C@H](Cc1ccc(O)cc1)NC(=O)[C@H](CO)NC(=O)[C@H](CO)NC(=O)[C@@H](NC(=O)[C@H](CC(=O)O)NC(=O)[C@H](CO)NC(=O)[C@@H](NC(=O)[C@H](Cc1ccccc1)NC(=O)[C@@H](NC(=O)CNC(=O)[C@H](CCC(=O)O)NC(=O)C(C)(C)NC(=O)[C@@H](N)Cc1c[nH]cn1)[C@@H](C)O)[C@@H](C)O)C(C)C)C(C)C)C(=O)N[C@@H](CCC(=O)O)C(=O)N[C@@H](Cc1c[nH]cn1)C(=O)N[C@@H](CC(C)C)C(=O)N[C@H](C(=O)N[C@@H](CCC(=O)O)C(=O)N[C@@H](CCCCN)C(=O)N[C@@H](Cc1ccccc1)C(=O)N[C@@H](CCCCN)C(=O)N[C@@H](CCC(=O)O)C(=O)N[C@@H](Cc1ccccc1)C(=O)N[C@@H](Cc1ccccc1)C(N)=O)C(C)C
# B3: [Aib8,Val25,Glu34,Lys35,Aib36,Lys37]-GLP-1-(7-37)-peptidyl-Glu-Phe-Leu amide (peptide)
# peptide: H[Aib]EGTFTSDVSSYLEGQAVKEFIAWLVEK[Aib]KEFL-NH2
# modifications: N-terminus assumed
# SMILES: CC[C@H](C)[C@H](NC(=O)[C@H](Cc1ccccc1)NC(=O)[C@H](CCC(=O)O)NC(=O)[C@H](CCCCN)NC(=O)[C@@H](NC(=O)[C@H](C)NC(=O)[C@H](CCC(N)=O)NC(=O)CNC(=O)[C@H](CCC(=O)O)NC(=O)[C@H](CC(C)C)NC(=O)[C@H](Cc1ccc(O)cc1)NC(=O)[C@H](CO)NC(=O)[C@H](CO)NC(=O)[C@@H](NC(=O)[C@H](CC(=O)O)NC(=O)[C@H](CO)NC(=O)[C@@H](NC(=O)[C@H](Cc1ccccc1)NC(=O)[C@@H](NC(=O)CNC(=O)[C@H](CCC(=O)O)NC(=O)C(C)(C)NC(=O)[C@@H](N)Cc1c[nH]cn1)[C@@H](C)O)[C@@H](C)O)C(C)C)C(C)C)C(=O)N[C@@H](C)C(=O)N[C@@H](Cc1c[nH]c2ccccc12)C(=O)N[C@@H](CC(C)C)C(=O)N[C@H](C(=O)N[C@@H](CCC(=O)O)C(=O)N[C@@H](CCCCN)C(=O)NC(C)(C)C(=O)N[C@@H](CCCCN)C(=O)N[C@@H](CCC(=O)O)C(=O)N[C@@H](Cc1ccccc1)C(=O)N[C@@H](CC(C)C)C(N)=O)C(C)C
# B4: [Aib8,Glu23,Val25,Gln26,Glu34,Gln35,Aib36,Gln37]-GLP-1-(7-37)-peptidyl-Glu-Phe-Leu amide (peptide)
# peptide: H[Aib]EGTFTSDVSSYLEGEAVQEFIAWLVEQ[Aib]QEFL-NH2
# modifications: N-terminus assumed
# SMILES: CC[C@H](C)[C@H](NC(=O)[C@H](Cc1ccccc1)NC(=O)[C@H](CCC(=O)O)NC(=O)[C@H](CCC(N)=O)NC(=O)[C@@H](NC(=O)[C@H](C)NC(=O)[C@H](CCC(=O)O)NC(=O)CNC(=O)[C@H](CCC(=O)O)NC(=O)[C@H](CC(C)C)NC(=O)[C@H](Cc1ccc(O)cc1)NC(=O)[C@H](CO)NC(=O)[C@H](CO)NC(=O)[C@@H](NC(=O)[C@H](CC(=O)O)NC(=O)[C@H](CO)NC(=O)[C@@H](NC(=O)[C@H](Cc1ccccc1)NC(=O)[C@@H](NC(=O)CNC(=O)[C@H](CCC(=O)O)NC(=O)C(C)(C)NC(=O)[C@@H](N)Cc1c[nH]cn1)[C@@H](C)O)[C@@H](C)O)C(C)C)C(C)C)C(=O)N[C@@H](C)C(=O)N[C@@H](Cc1c[nH]c2ccccc12)C(=O)N[C@@H](CC(C)C)C(=O)N[C@H](C(=O)N[C@@H](CCC(=O)O)C(=O)N[C@@H](CCC(N)=O)C(=O)NC(C)(C)C(=O)N[C@@H](CCC(N)=O)C(=O)N[C@@H](CCC(=O)O)C(=O)N[C@@H](Cc1ccccc1)C(=O)N[C@@H](CC(C)C)C(N)=O)C(C)C
# B5: [Aib8,Lys23,Val25,Glu34,Lys35,Aib36,Lys37]-GLP-1-(7-37)-peptidyl-Glu-Phe-Leu amide (peptide)
# peptide: H[Aib]EGTFTSDVSSYLEGKAVKEFIAWLVEK[Aib]KEFL-NH2
# modifications: N-terminus assumed
# SMILES: CC[C@H](C)[C@H](NC(=O)[C@H](Cc1ccccc1)NC(=O)[C@H](CCC(=O)O)NC(=O)[C@H](CCCCN)NC(=O)[C@@H](NC(=O)[C@H](C)NC(=O)[C@H](CCCCN)NC(=O)CNC(=O)[C@H](CCC(=O)O)NC(=O)[C@H](CC(C)C)NC(=O)[C@H](Cc1ccc(O)cc1)NC(=O)[C@H](CO)NC(=O)[C@H](CO)NC(=O)[C@@H](NC(=O)[C@H](CC(=O)O)NC(=O)[C@H](CO)NC(=O)[C@@H](NC(=O)[C@H](Cc1ccccc1)NC(=O)[C@@H](NC(=O)CNC(=O)[C@H](CCC(=O)O)NC(=O)C(C)(C)NC(=O)[C@@H](N)Cc1c[nH]cn1)[C@@H](C)O)[C@@H](C)O)C(C)C)C(C)C)C(=O)N[C@@H](C)C(=O)N[C@@H](Cc1c[nH]c2ccccc12)C(=O)N[C@@H](CC(C)C)C(=O)N[C@H](C(=O)N[C@@H](CCC(=O)O)C(=O)N[C@@H](CCCCN)C(=O)NC(C)(C)C(=O)N[C@@H](CCCCN)C(=O)N[C@@H](CCC(=O)O)C(=O)N[C@@H](Cc1ccccc1)C(=O)N[C@@H](CC(C)C)C(N)=O)C(C)C
# B6: [Aib8,Pro22,Glu23,Val25,Glu34,Lys35,Aib36,Lys37]-GLP-1-(7-37)-peptidyl-Glu-Phe-Leu amide (peptide)
# peptide: H[Aib]EGTFTSDVSSYLEPEAVKEFIAWLVEK[Aib]KEFL-NH2
# modifications: N-terminus assumed
# SMILES: CC[C@H](C)[C@H](NC(=O)[C@H](Cc1ccccc1)NC(=O)[C@H](CCC(=O)O)NC(=O)[C@H](CCCCN)NC(=O)[C@@H](NC(=O)[C@H](C)NC(=O)[C@H](CCC(=O)O)NC(=O)[C@@H]1CCCN1C(=O)[C@H](CCC(=O)O)NC(=O)[C@H](CC(C)C)NC(=O)[C@H](Cc1ccc(O)cc1)NC(=O)[C@H](CO)NC(=O)[C@H](CO)NC(=O)[C@@H](NC(=O)[C@H](CC(=O)O)NC(=O)[C@H](CO)NC(=O)[C@@H](NC(=O)[C@H](Cc1ccccc1)NC(=O)[C@@H](NC(=O)CNC(=O)[C@H](CCC(=O)O)NC(=O)C(C)(C)NC(=O)[C@@H](N)Cc1c[nH]cn1)[C@@H](C)O)[C@@H](C)O)C(C)C)C(C)C)C(=O)N[C@@H](C)C(=O)N[C@@H](Cc1c[nH]c2ccccc12)C(=O)N[C@@H](CC(C)C)C(=O)N[C@H](C(=O)N[C@@H](CCC(=O)O)C(=O)N[C@@H](CCCCN)C(=O)NC(C)(C)C(=O)N[C@@H](CCCCN)C(=O)N[C@@H](CCC(=O)O)C(=O)N[C@@H](Cc1ccccc1)C(=O)N[C@@H](CC(C)C)C(N)=O)C(C)C
# B7: [Aib8,Glu23,Val25,Gln26,Glu34,Ala35,Val36,Ala37]-GLP-1-(7-37)-peptidyl-Glu-Phe-Leu amide (peptide)
# peptide: H[Aib]EGTFTSDVSSYLEGEAVQEFIAWLVEAVAEFL-NH2
# modifications: N-terminus assumed
# SMILES: CC[C@H](C)[C@H](NC(=O)[C@H](Cc1ccccc1)NC(=O)[C@H](CCC(=O)O)NC(=O)[C@H](CCC(N)=O)NC(=O)[C@@H](NC(=O)[C@H](C)NC(=O)[C@H](CCC(=O)O)NC(=O)CNC(=O)[C@H](CCC(=O)O)NC(=O)[C@H](CC(C)C)NC(=O)[C@H](Cc1ccc(O)cc1)NC(=O)[C@H](CO)NC(=O)[C@H](CO)NC(=O)[C@@H](NC(=O)[C@H](CC(=O)O)NC(=O)[C@H](CO)NC(=O)[C@@H](NC(=O)[C@H](Cc1ccccc1)NC(=O)[C@@H](NC(=O)CNC(=O)[C@H](CCC(=O)O)NC(=O)C(C)(C)NC(=O)[C@@H](N)Cc1c[nH]cn1)[C@@H](C)O)[C@@H](C)O)C(C)C)C(C)C)C(=O)N[C@@H](C)C(=O)N[C@@H](Cc1c[nH]c2ccccc12)C(=O)N[C@@H](CC(C)C)C(=O)N[C@H](C(=O)N[C@@H](CCC(=O)O)C(=O)N[C@@H](C)C(=O)N[C@H](C(=O)N[C@@H](C)C(=O)N[C@@H](CCC(=O)O)C(=O)N[C@@H](Cc1ccccc1)C(=O)N[C@@H](CC(C)C)C(N)=O)C(C)C)C(C)C
# B8: [Aib8,Glu23,Val25,Glu34,Lys35,Phe36,Lys37]-GLP-1-(7-37)-peptidyl-Glu-Phe-Phe amide (peptide)
# peptide: H[Aib]EGTFTSDVSSYLEGEAVKEFIAWLVEKFKEFF-NH2
# modifications: N-terminus assumed
# SMILES: CC[C@H](C)[C@H](NC(=O)[C@H](Cc1ccccc1)NC(=O)[C@H](CCC(=O)O)NC(=O)[C@H](CCCCN)NC(=O)[C@@H](NC(=O)[C@H](C)NC(=O)[C@H](CCC(=O)O)NC(=O)CNC(=O)[C@H](CCC(=O)O)NC(=O)[C@H](CC(C)C)NC(=O)[C@H](Cc1ccc(O)cc1)NC(=O)[C@H](CO)NC(=O)[C@H](CO)NC(=O)[C@@H](NC(=O)[C@H](CC(=O)O)NC(=O)[C@H](CO)NC(=O)[C@@H](NC(=O)[C@H](Cc1ccccc1)NC(=O)[C@@H](NC(=O)CNC(=O)[C@H](CCC(=O)O)NC(=O)C(C)(C)NC(=O)[C@@H](N)Cc1c[nH]cn1)[C@@H](C)O)[C@@H](C)O)C(C)C)C(C)C)C(=O)N[C@@H](C)C(=O)N[C@@H](Cc1c[nH]c2ccccc12)C(=O)N[C@@H](CC(C)C)C(=O)N[C@H](C(=O)N[C@@H](CCC(=O)O)C(=O)N[C@@H](CCCCN)C(=O)N[C@@H](Cc1ccccc1)C(=O)N[C@@H](CCCCN)C(=O)N[C@@H](CCC(=O)O)C(=O)N[C@@H](Cc1ccccc1)C(=O)N[C@@H](Cc1ccccc1)C(N)=O)C(C)C
# Target: human GLP-1 receptor (human, UniProt P43220)
# Test: cell-based or functional assay
Binder,"CRE luciferase EC50, 0% HSA","CRE luciferase EC50, 1% HSA"
B1,433 pM,118 pM
B2,5420 pM,1160 pM
B3,161 pM,74 pM
"HGEGTFTSDVSSYLEGEAVKEFIAWLVEKVKEFLG [[Gly8,Glu23,Val25,Glu34,Lys35,Val36,Lys37]-GLP-1-(7-37)-peptidyl-Glu-Phe-Leu-Gly]",464 pM,122 pM
B4,156 pM,40 pM
B5,311 pM,173 pM
B6,7530 pM,936 pM
B7,622 pM,273 pM
B8,1220 pM,431 pM

# Reference: patent US20150344540A1, “NOVEL GLP-1 RECEPTOR AGONISTS WITH CHOLESTEROL EFFLUX ACTIVITY” (NOVO NORDISK A/S, priority 2012, published 2015)
